Experimental data from US20180291083A1.

Target: HLA-B*07:02 (human)
Assay: UV ligand exchange ELISA; exchange yield grade
Details: remark: other sources report otherwise

YPGWHSTTI […] gave a peptide exchange yield of 20 to 50%.
